Cell surface expression of DRA.DPB1*0401 co-expressed with Ii M91G (flow cytometry, mAb 2.06) data for 1 substance are collected here from article PMC3887193.

For this assay, the target named is HLA-DRα (human). Conditions: scale: % of surface expression with wild type Ii.

Consider Ii M91G mutant (natural protein), for which the cell surface expression of DRA.DPB1*0401 co-expressed with Ii M91G (flow cytometry, mAb 2.06) was found to be 60.
